Measured values published in patent US5879896A, “Method of screening for inhibitors of human thyrotropin releasing hormone (TRH) receptor” (Takeda Chemical Industries, Ltd., priority 1993, dated 1999).
Like-named read-outs stand apart in the source and are kept apart here. Square brackets hold non-standard residues; d marks the D form. Ends that are not written are not given here. Peptide text beside a SMILES is read from it. Blc = γ-butyrolactone-γ-carbonyl group; pGlu = O=C1CC[C@@H](C(=O)O)N1; ΔPro = O=C(O)[C@@H]1C=CCN1; Nva = CCC[C@H](N)C(=O)O; His(3-Me) = 3-Me-His

Key:
[1] = system: CHO dhfr- cells; experiment: [3H]TRH binding to CHO dhfr- cell line into which no human TRH receptor DNA was introduced (Example 4); parameters: species or system Chinese hamster; conditions: no human TRH receptor DNA introduced (FIG. 9)
Experimental: This plasmid was cleaved with SalI and ClaI. The plasmid obtained in Example 3 in which the translation frame (open reading frame) of the human TRH receptor was constructed on pUC118 was cleaved with HindIII, and repaired with a Klenow fragment, followed by addition of an SalI linker. The resulting fragment was further cleaved with SmaI, and a fragment containing the translation frame (open reading frame) of the human TRH receptor and a ClaI linker were added thereto. This was cleaved with SalI and ClaI, and thereafter, the plasmid DNA previously cleaved with SalI and ClaI was bound thereto to complete an expression plasmid. This plasmid DNA was purified by cesium chloride equilibrium density gradient centrifugation, and partially introduced into the CHO dhfr^- cell line with a gene introduction kit (CellPhect, Pharmacia) by the calcium phosphate precipitation method. The original CHO dhfr^- cell line is impossible to grow in a medium not containing a nucleoside and a nucleotide, because of lack of dhfr phenotype. […] The cells were dissolved in 500 μl of 1% SDS and 0.2N NaOH, and the radioactivity contained therein was measured by use of liquid scintillator A. In order to know the non-specific binding, a group was also prepared to which non-labeled TRH was added to a final concentration of 10 μM in addition to [^3 H] […]

[2] = target: T1, human TRH receptor (Homo sapiens, UniProt P34981); experiment: Antagonism of [3H]TRH binding in CHO dhfr- cells transformed with human TRH receptor DNA (Examples 5 and 6); parameters: translation frame (open reading frame) of the human TRH receptor was constructed on pUC118; expressed in transfected cells; host or cells: CHO dhfr- cells (plasmid pAKKO1.11 with the human TRH receptor open reading frame); conditions: for inhibition at 100 µM / inhibition at 10 µM / inhibition at 1000 µM: 1 h; for Antagonistic Rate (%) at Each Concentration (-log M): 60 min; for Antagonistic binding activity to the human TRH receptor, in words: benzodiazepine compounds, 10 μM to 1 mM
T1 sequence (P34981 1-398): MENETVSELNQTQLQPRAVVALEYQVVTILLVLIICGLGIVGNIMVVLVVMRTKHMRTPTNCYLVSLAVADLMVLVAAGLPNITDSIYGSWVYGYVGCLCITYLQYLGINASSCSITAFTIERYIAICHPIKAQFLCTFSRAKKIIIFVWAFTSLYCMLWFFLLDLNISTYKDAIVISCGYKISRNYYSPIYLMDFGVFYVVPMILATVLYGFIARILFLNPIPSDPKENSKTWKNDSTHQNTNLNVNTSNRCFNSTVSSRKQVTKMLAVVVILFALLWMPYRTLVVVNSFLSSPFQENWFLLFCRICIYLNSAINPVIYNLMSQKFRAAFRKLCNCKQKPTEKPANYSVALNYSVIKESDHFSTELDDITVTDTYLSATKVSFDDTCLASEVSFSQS

[3] = target: T2, human TRH receptor protein (human); experiment: competition with 18.3 nM 3H-TRH, CHO cells expressing human TRH receptor; compound at 10^-5 M
T2 chain: T1 sequence (P34981 1-398)
Experimental: (§1) In Table 2, the degree of a reduction in the binding of [^3H] TRH in the case where the TRH analogous compound having respective concentrations was added to the total binding of [^3H] TRH in the case where no TRH analogous compound existed was indicated as percentage. The specific activity of [^3H] TRH used in the experiment was 83.04 Ci/mmol, and this was added to give a concentration of 10 nM in the reaction solution. For the compounds indicated by (*1) in the table, the specific activity of [^3H] TRH was 45 Ci/mmol, and this was added to give a concentration of 18.3 nM in the reaction solution.

[4] = target: T2, human TRH receptor protein; experiment: competition with 18.3 nM 3H-TRH, CHO cells expressing human TRH receptor; compound at 10^-6 M
Experimental: as §1

[5] = target: T2, human TRH receptor protein; experiment: competition with 18.3 nM 3H-TRH, CHO cells expressing human TRH receptor; compound at 10^-8 M
Experimental: as §1

[6] = target: T2, human TRH receptor protein; experiment: competition with 18.3 nM 3H-TRH, CHO cells expressing human TRH receptor; compound at 10^-9 M
Experimental: as §1

[7] = target: T2, human TRH receptor protein; experiment: competition with 18.3 nM 3H-TRH, CHO cells expressing human TRH receptor; compound at 10^-10 M
Experimental: as §1

[8] = target: T2, human TRH receptor protein; experiment: competition with 18.3 nM 3H-TRH, CHO cells expressing human TRH receptor; compound at 10^-7 M
Experimental: as §1

[9] = target: T2, human TRH receptor protein; experiment: competition with 10 nM 3H-TRH, CHO cells expressing human TRH receptor; compound at 10^-5 M
[10] = target: T2, human TRH receptor protein; experiment: competition with 10 nM 3H-TRH, CHO cells expressing human TRH receptor; compound at 10^-12 M
Experimental: as §1

[11] = target: T2, human TRH receptor protein; experiment: competition with 10 nM 3H-TRH, CHO cells expressing human TRH receptor; compound at 10^-9 M
[12] = target: T2, human TRH receptor protein; experiment: competition with 10 nM 3H-TRH, CHO cells expressing human TRH receptor; compound at 10^-10 M
Experimental: as §1

[13] = target: T2, human TRH receptor protein; experiment: competition with 10 nM 3H-TRH, CHO cells expressing human TRH receptor; compound at 10^-11 M
Experimental: as §1

[14] = target: T2, human TRH receptor protein; experiment: competition with 10 nM 3H-TRH, CHO cells expressing human TRH receptor; compound at 10^-8 M
[15] = target: T2, human TRH receptor protein; experiment: competition with 10 nM 3H-TRH, CHO cells expressing human TRH receptor; compound at 10^-6 M
Experimental: as §1

[16] = target: T2, human TRH receptor protein; experiment: competition with 10 nM 3H-TRH, CHO cells expressing human TRH receptor; compound at 10^-7 M
Experimental: as §1

[17] = target: T2, human TRH receptor protein; experiment: competition with 10 nM 3H-TRH, CHO cells expressing human TRH receptor; compound at 10^-4 M
[18] = -log M = 4, 10 nM [3H]TRH, read-out: Antagonistic Rate (%) at Each Concentration (-log M)
[19] = -log M = 5, 10 nM [3H]TRH, read-out: Antagonistic Rate (%) at Each Concentration (-log M)
[20] = read-out: Antagonistic activity (TABLE 1; percentage to that of the control)

## [L-proline-2,3,4,5-^3 H(N)]-(Pyro)Glu-His-Pro-NH2 [[^3 H] TRH]
[1]
  Specific binding, in words: no specific binding was detected at all

## NC(=O)[C@@H]1CCCN1C(=O)[C@H](Cc1ccccc1)NC(=O)[C@@H]1CCC(=O)N1 [Compound 14, pGlu Phe Pro NH2] ([pGlu]-Phe-Pro-NH2)
[2]; [18]
  inhibition at 100 µM: 96.2%
[2]; [19]
  inhibition at 10 µM: 74.2%

## pGlu His Pro Gly Lys ([pGlu]HPGK) [Compound 3]
[2]; -log M = 5, 10 nM [3H]TRH
  Antagonistic Rate (%) at Each Concentration (-log M): 31.9%
[2]; -log M = 6, 10 nM [3H]TRH, 1 µM
  Antagonistic Rate (%) at Each Concentration (-log M): -0.6%

## Cc1ncc2n1-c1ccc(Cl)cc1C(c1ccccc1F)=NC2 [Midazolam, midazolam]
[2]; [20]
  inhibition at 10 µM: 2.6%
  inhibition at 100 µM: 12%
  inhibition at 1000 µM: 69.7%
[2]
  Antagonistic binding activity to the human TRH receptor, in words: antagonistic activity increased in order of midazolam, chlordiazepoxide and oxazepam

## CN1C(=O)CN=C(c2ccccc2F)c2cc([N+](=O)[O-])ccc21 [Flunitrazepam, flunitrazepam]
[2]; [20]
  inhibition at 10 µM: -0.5%
  inhibition at 100 µM: -4%
  inhibition at 1000 µM: -13.7%
[2]
  Antagonistic binding activity to the human TRH receptor, in words: no antagonistic binding was observed at all

## CCC[C@H](NC(=O)[C@@H]1CCC(=O)N1)C(=O)N1CCC[C@H]1C(N)=O [Compound 15, pGlu NVal Pro NH2] ([pGlu]-[Nva]-Pro-NH2)
[2]; [18]
  inhibition at 100 µM: 78.6%
[2]; [19]
  inhibition at 10 µM: 33.4%

## O=C1N[C@@H](Cc2c[nH]cn2)C(=O)N2CCC[C@@H]12 [Compound 2, Cyclo(His--Pro) His Pro-Diketopiperazine]
[2]; [18]
  inhibition at 100 µM: -1.1%
[2]; [19]
  inhibition at 10 µM: 0.6%

## CNC1=Nc2ccc(Cl)cc2C(c2ccccc2)=[N+]([O-])C1 [Chlordiazepoxide, chlordiazepoxide]
[2]; [20]
  inhibition at 10 µM: -2.2%
  inhibition at 100 µM: 7.1%
  inhibition at 1000 µM: 46.8%
[2]
  Antagonistic binding activity to the human TRH receptor, in words: antagonistic activity increased in order of midazolam, chlordiazepoxide and oxazepam

## [pGlu]-His-[ΔPro]-NH2 (SMILES NC(=O)[C@@H]1C=CCN1C(=O)[C@H](Cc1c[nH]cn1)NC(=O)[C@@H]1CCC(=O)N1) [pGlu His 3,4-dihydro-Pro NH2]
[3]
  Antagonistic Rate (%): 99.7%
[4]
  Antagonistic Rate (%): 98.3%
[5]
  Antagonistic Rate (%): 39.1%
[6]
  Antagonistic Rate (%): 7%
[7]
  Antagonistic Rate (%): 2.2%
[8]
  Antagonistic Rate (%): 84.6%

## [pGlu]-Glu-Pro-NH2 (SMILES NC(=O)[C@@H]1CCCN1C(=O)[C@H](CCC(=O)O)NC(=O)[C@@H]1CCC(=O)N1) [pGlu Glu Pro NH2]
[9]
  Antagonistic Rate (%): -2.9%

## [pGlu]-[His(3-Me)]-Pro-NH2 [pGlu 3-Me-His Pro NH2]
[10]
  Antagonistic Rate (%): -6.5%
[11]
  Antagonistic Rate (%): 20%
[9]
  Antagonistic Rate (%): 97.9%
[12]
  Antagonistic Rate (%): -4.4%
[13]
  Antagonistic Rate (%): -7.1%
[14]
  Antagonistic Rate (%): 85%

## [pGlu]-His-Pro-NH2 [TRH (pGlu His Pro NH2)]
[3]
  Antagonistic Rate (%): 99.7%
[4]
  Antagonistic Rate (%): 97.8%
[5]
  Antagonistic Rate (%): 39.8%
[10]
  Antagonistic Rate (%): 0%
[11]
  Antagonistic Rate (%): 7.2%
[9]
  Antagonistic Rate (%): 99.7%
[15]
  Antagonistic Rate (%): 98.7%
[6]
  Antagonistic Rate (%): 4.2%
[12]
  Antagonistic Rate (%): 0.3%
[16]
  Antagonistic Rate (%): 90.7%
[7]
  Antagonistic Rate (%): -0.7%
[13]
  Antagonistic Rate (%): 0.7%
[14]
  Antagonistic Rate (%): 52%
[8]
  Antagonistic Rate (%): 83.9%

## [pGlu]-His-Pro [pGLU His Pro]
[17]
  Antagonistic Rate (%): 40.8%
[9]
  Antagonistic Rate (%): 11.8%

## Blc-His-Pro [Blc His Pro]
[17]
  Antagonistic Rate (%): 0.7%
[9]
  Antagonistic Rate (%): -0.1%

## [pGlu]-[Nva]-Pro-NH2 (SMILES CCC[C@H](NC(=O)[C@@H]1CCC(=O)N1)C(=O)N1CCC[C@H]1C(N)=O) [pGlu NVal Pro NH2]
[17]
  Antagonistic Rate (%): 78.6%
[9]
  Antagonistic Rate (%): 33.4%

## Glu-His-Pro-NH2 [Glu His Pro NH2]
[3]
  Antagonistic Rate (%): 95.3%
[4]
  Antagonistic Rate (%): 70.7%
[5]
  Antagonistic Rate (%): 1.8%
[6]
  Antagonistic Rate (%): 1%
[7]
  Antagonistic Rate (%): 2%
[8]
  Antagonistic Rate (%): 19.7%

## HP (cyclic dipeptide (diketopiperazine) of His and Pro) [Cyclo(His--Pro) His Pro-Diketopiperazine]
[17]
  Antagonistic Rate (%): -1.1%
[9]
  Antagonistic Rate (%): 0.6%

## [pGlu]-Phe-Pro-NH2 [pGlu Phe Pro NH2]
[17]
  Antagonistic Rate (%): 96.2%
[9]
  Antagonistic Rate (%): 74.2%
